Literature values as cited in article PMC7878404.

Molecular target: Bex1 50-75 (UniProt Q9R224)
Sequence of UniProt Q9R224 (Q9R224 50-75): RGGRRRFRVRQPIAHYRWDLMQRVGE

OMP (from UniProt P08523)
Kd: 150 µM
